Molecular target: non-WT1-derived peptide expressed on TPC1 cells in complex with HLA-A*02:01 (human)
Experiment: cell-based or functional assay

improvement of specific lysis, chromium-51 release ADCC, TPC1 cells pretreated with 100 nM trametinib: 10% | percent specific lysis, chromium-51 release ADCC with human PBMCs, 50:1 E:T, TPC1 cells pretreated with 10 nM AST487: 20% | percent specific lysis, chromium-51 release ADCC with human PBMCs, 50:1 E:T, TPC1 cells pretreated with DMSO: 3%
Substance: ESK1 (antibody)
